Values quoted from earlier work in patent US20060166927A1, “Compounds that bind to the interferon-gamma, preparation method thereof and medicaments containing same” (priority 2002, published 2006).

B1: γ-IFN: polypeptide comprising, for example, 143 amino acids in humans, which is part of the cytokine family (protein, UniProt P01579 24-161, looked up)
Interferon gamma: QDPYVKEAENLKKYFNAGHSDVADNGTLFLGILKNWKEESDRKIMQSQIVSFYFKLFKNFKDDQSIQKSVETIKEDMNVKFFNSNKKKRDDFEKLTNYSVTDLNVQRKAIHELIQVMAELSPAAKTGKRKRSQMLFRG
proportion of injected γ-IFN rapidly bound by molecules of heparin/heparan sulphate type (at the surface of the vascular endothelium): approximately 90% | cytokine disappearing from the circulating blood (intravenous injection, during the first 5 to 10 minutes): 90% | half-life time (intravenous injection, first phase of biexponential elimination): ~1 min | inactivation in vivo (γ-IFN alone): rapidly inactivated by proteolytic degradation of its C-terminal end
